Data from patent US20260232825A1, “LINKER-DRUG MOLECULE AND ANTIBODY DRUG CONJUGATE, PREPARATION METHOD THEREFOR AND USE THEREOF” (SHANGHAI ESCUGEN BIOTECHNOLOGY CO., LTD., priority 2023, published 2026).
pIC50: −log10 of the molar value. Numbered stars: 1 amine (or outer) side, 2 acyl side, 3 side chain; on linkers, the order of the positions; unused ones are H or OH. Square brackets hold non-standard residues; d marks the D form. Peptide text beside a SMILES is read from it. * marks the point of attachment. Exatecan = CC[C@@]1(O)C(=O)OCc2c1cc1n(c2=O)Cc2c-1nc1cc(F)c(C)c3c1c2[C@@H](N*)CC3; Dolaproine = CO[C@@H]([C@@H]1CCCN1)[C@@H](C)C(=O)O; Hexanoyl(6-maleimido) = O=C1C=CC(=O)N1CCCCCC(=O)*; Dil = CC[C@H](C)[C@H](NC)[C@@H](CC(=O)O)OC; PABC = O=C(OCc1ccc(N[*:1])cc1)[*:2]; X1 = C[N+](C)(CCCS(=O)(=O)[O-])CCN*; NHCH2OCH2CO = O=C(COCN[*:1])[*:2]; X2 = C[C@@H](N*)[C@@H](O)c1ccccc1; NMeV = CN[C@H](C(=O)O)C(C)C

What was measured:
MC38-hClaudin18.2 cells = assay: In vitro tumor cell killing activity, MC38-hClaudin18.2 cell line (AlamarBlue); assay type: cell-based, mouse; conditions: MC38-hClaudin18.2 cells, 48-72 hours, AlamarBlue; read-out: IC50 values
Procedure: 9D1 antibody-drug conjugates prepared in the previous Experimental Examples and Comparative Examples were used for performing in vitro killing test on MC38 cell lines stably expressing human Claudin18.2. MC38-hClaudin18.2 cells were inoculated into a 96-well cell culture plate at 3000 cells/well, adding gradient diluted 9D1 ADCs next day to culture for 48-72 hours. The fluorescence values of each experimental well were detected by AlamarBlue reagent (ThermoFisher, item number DAL1100), and the cell viability was calculated.
When the cell confluence was greater than 80%, the cells were passaged at a ratio of 1:10 to 1:20 every 3 days.
MC38-hClaudin18.2 cells were digested by a digestive solution of recombinant enzyme (TrypLE™ Express Enzyme). […] The cell density was adjusted to 3×10^4 cells/mL, inoculating into 96-well cell culture plate at 100 μL/well. The cells were cultured overnight at 37° C. in 5% C02 incubator. The next day, the test drug was diluted 10 times in a series with a total of 7-8 concentration points, simultaneously setting a blank control with a sample concentration of 0. The diluted sample was added to 96-well cell culture plate containing cells at 100 μL/well, then incubating at 37° C. in 5% CO2 incubator for 48-72 hours. 20 μL of AlamarBlue detection reagent was added to each well, incubating at 37° C. for 4-6 hours, the fluorescence signal intensity was detected on a multifunctional enzyme-linked immunosorbent assay (ELISA) instrument with an excitation wavelength of 560 nm and an emission wavelength of 590 nm.
The cell viability of the blank control was set to 100%, and the cell viability (%) of the experimental well was calculated by the following formula: […]
The detected average cell viability was takedn as the y-axis, a sigmoid dose response (Variable Slope) method (GraphPad Prism software, GraphPad Software, San Diego, California) was used for nonlinear regression to obtain the inhibitory effect curves of cell proliferation, and the corresponding IC50 values (half maximum inhibition concentration) were calculated. […]

[1] = Hydrophobic interaction chromatography (HIC) analysis of the antibody-drug conjugates; assay type: physicochemical; conditions: main peak of the antibody-drug conjugate, Butyl-NPR column
Procedure: Size exclusion chromatography (SEC) analysis column is Tskgel G3000SWXL (TOSOH, 0008541); mobile phase is 0.1 M PB, pH7.0, 0.1M NaCl; isocratic elution, flow rate: 1 mL/min; column temperature: 25° C. Detection wavelength is 280 nm and 366 nm, respectively. Hydrophobic interaction chromatography (HIC) analysis column is Butyl-NPR 4.6×100 mm (TOSOH, 0042168); mobile phase A is 50 mM PB, pH7.0, 1.5 M (NH4)2SO4; mobile phase B is 50 mM PB, pH7.0, 20% acetonitrile. Separation gradient: changing from 0% B to 100% B in 2-20 min, column temperature: 30° C., flow rate: 0.6 mL/min. Detection wavelength is 280 nm and 366 nm, respectively. The results are shown in Table 1 and FIG. 1-FIG. 6 (FIG. 1 comprises FIG. 1A and FIG. 1B; FIG. 2 comprises FIG. 2A and FIG. 2B; FIG. 3 comprises FIG. 3A, FIG. 3B, FIG. 3C, FIG. 3D, FIG. 3E, FIG. 3F, FIG. 3G and FIG. 3H; FIG. 4 comprises FIG. 4A and FIG. 4B; FIG. 5 comprises FIG. 5A and FIG. 5B; and FIG. 6 comprises FIG. 6A, FIG. 6B, FIG. 6C, […], FIG. 6E, FIG. 6F, FIG. 6G and […]).

[2] = Size exclusion chromatography (SEC) analysis of the antibody-drug conjugates; assay type: physicochemical; conditions: SEC purity of the antibody-drug conjugate
Procedure: Size exclusion chromatography (SEC) analysis column is Tskgel G3000SWXL (TOSOH, 0008541); mobile phase is 0.1 M PB, pH7.0, 0.1M NaCl; isocratic elution, flow rate: 1 mL/min; column temperature: 25° C. Detection wavelength is 280 nm and 366 nm, respectively. Hydrophobic interaction chromatography (HIC) analysis column is Butyl-NPR 4.6×100 mm (TOSOH, 0042168); mobile phase A is 50 mM PB, pH7.0, 1.5 M (NH4)2SO4; mobile phase B is 50 mM PB, pH7.0, 20% acetonitrile. Separation gradient: changing from 0% B to 100% B in 2-20 min, column temperature: 30° C., flow rate: 0.6 mL/min. Detection wavelength is 280 nm and 366 nm, respectively.

Cathepsin B enzyme = target: T1, Cathepsin B enzyme (Homo sapiens, UniProt P07858); assay: In vitro enzymatic release of free toxin molecules by Cathepsin B; assay type: biochemical
T1 construct: purchased Sino Biological 10483-H08H
Procedure: Preparation of activated buffer solution (10 mM L-cysteine (ACRO, cat #: 173600250), 15 mM EDTA, 0.1M His HCl, pH 5.5): […] of solid cysteine was weighed, adding 3 mL of 0.1M His HCl (pH 5.5) solution for dissolution, and then adding 90 μL of 0.5M EDTA solution to mix well.
[…] At each detection time point, 50 μL of enzyme digestion solution was taken, adding 2.5 μL of 10% TFA solution to terminate the reaction for enzyme digestion kinetics detection.
Negative control preparation: 30 μL of activated buffer was taken to stay in 37° C. water bath for 15 minutes, then adding 300 μL of 0.1M His HCl (pH 5.5) solution and 36 μL of 9D1-LD-38 (375 μg) to stay in 37° C. water bath overnight.

[3] = Time 0 h, linker-toxin to Cathepsin B about 1200:1, 37° C.

Row | Structure (SMILES) | HIC retention time [1] | SEC % [2] | other results
1 | CC[C@H](C)[C@@H]([C@@H](CC(=O)N1CCC[C@H]1[C@H](OC)[C@@H](C)C(=O)N[C@H](C)[C@@H](O)c1ccccc1)OC)N(C)C(=O)[C@@H](NC(=O)[C@@H](NC)C(C)C)C(C)C [MMAE, monomethyl auristatin E] (H-[NMeV]V[Dil][Dolaproine]-X2) | – | – | pIC50 (MC38-hClaudin18.2 cells): 8.69
2 | CC[C@@]1(O)C(=O)OCc2c1cc1n(c2=O)Cc2c-1nc1cc(F)c(C)c3c1c2[C@@H](NC(=O)OCc1ccc(NC(=O)[C@H](C)NC(=O)[C@@H](NC(=O)[C@H](CCC(=O)O)NC(=O)CCCCCN2C(=O)C=CC2=O)C(C)C)cc1)CC3 [LD-27] | 15.107 min | – | –
3 | CC[C@@]1(O)C(=O)OCc2c1cc1n(c2=O)Cc2c-1nc1cc(F)c(C)c3c1c2[C@@H](NC(=O)OCc1ccc(NC(=O)CNC(=O)[C@H](Cc2ccccc2)NC(=O)CNC(=O)CNC(=O)CCCCCN2C(=O)C=CC2=O)cc1CN(C)C(=O)COP(=O)([O-])OCC[N+](C)(C)C)CC3 [LD-72] | 13.126 min | 98.90% | –
4 | CC[C@@]1(O)C(=O)OCc2c1cc1n(c2=O)Cc2c-1nc1cc(F)c(C)c3c1c2[C@@H](NC(=O)OCc1ccc(NC(=O)[C@H](C)NC(=O)[C@@H](NC(=O)CCOCCOCCOCCOCCNC(=O)CCN2C(=O)C=CC2=O)C(C)C)cc1CN(C)C(=O)CCOCCOCCOCCOCCOCCOCCOCCOCCOC)CC3 [LD-73] | 16.002 min | 99.53% | –
5 | CC[C@@]1(O)C(=O)OCc2c1cc1n(c2=O)Cc2c-1nc1cc(F)c(C)c3c1c2[C@@H](NC(=O)OCc1ccc(NC(=O)[C@H](C)NC(=O)[C@@H](NC(=O)CCCCCN(C)CCN2C(=O)C=CC2=O)C(C)C)cc1CN(C)C(=O)CCC[N+](C)(C)CCCS(=O)(=O)[O-])CC3 [LD-98] | 13.121 min | 98.79% | –
6 | CC[C@@]1(O)C(=O)OCc2c1cc1n(c2=O)Cc2c-1nc1cc(F)c(C)c3c1c2[C@@H](NC(=O)OCc1ccc(NC(=O)[C@H](C)NC(=O)[C@@H](NC(=O)CCCCCN2C(=O)C=CC2=O)C(C)C)cc1CN(C)C(=O)CN(C)C(=O)CN(C)C(=O)CN(C)C(=O)CN(C)C(=O)CN(C)C(=O)CN(C)C(=O)CN(C)C(=O)CN(C)C(=O)CN(C)C(=O)CN(C)C(C)=O)CC3 [LD-74, reference compound] | 13.583 min | 99.53% | –
7 | CC[C@@]1(O)C(=O)OCc2c1cc1n(c2=O)Cc2c-1nc1cc(F)c(C)c3c1c2[C@@H](NC(=O)COCNC(=O)CNC(=O)[C@H](Cc1ccccc1)NC(=O)CNC(=O)CNC(=O)CCCCCN1C(=O)C=CC1=O)CC3 [Deruxtecan (MC-GGFG-Dxd), reference compound] ({Hexanoyl(6-maleimido)}-GGFG[NHCH2OCH2CO]-Exatecan) | – | – | Cathepsin B enzyme digestion kinetics (Cathepsin B enzyme; [3]): 0%; Cathepsin B enzyme digestion kinetics (Cathepsin B enzyme; Time 1 h): 0%; Cathepsin B enzyme digestion kinetics (Cathepsin B enzyme; Time 2 h): 0%; Cathepsin B enzyme digestion kinetics (Cathepsin B enzyme; Time 4 h): 0%; Cathepsin B enzyme digestion kinetics (Cathepsin B enzyme; Time 20 h): 0%; Cathepsin B enzyme digestion kinetics (Cathepsin B enzyme; Time 20 h, listed as MC-GGFG-Dxd): does not release any enzyme digestion products
8 | CC[C@@]1(O)C(=O)OCc2c1cc1n(c2=O)Cc2c-1nc1cc(F)c(C)c3c1c2[C@@H](NC(=O)OCc1ccc(NC(=O)[C@H](C)NC(=O)[C@@H](NC(=O)CCOCCOCCOCCOCCNC(=O)CCN2C(=O)C=CC2=O)C(C)C)cc1CN(C)C(=O)CCC[N+](C)(C)CCCS(=O)(=O)[O-])CC3 [LD-65] | 13.46 min | 99.28% | Cathepsin B enzyme digestion kinetics (Cathepsin B enzyme; [3]): 0%; Cathepsin B enzyme digestion kinetics (Cathepsin B enzyme; Time 1 h): 0%; Cathepsin B enzyme digestion kinetics (Cathepsin B enzyme; Time 2 h): 1%; Cathepsin B enzyme digestion kinetics (Cathepsin B enzyme; Time 4 h): 1%; HIC retention time ([1]; listed as 7): 13.455 min
9 | CC[C@@]1(O)C(=O)OCc2c1cc1n(c2=O)Cc2c-1nc1cc(F)c(C)c3c1c2[C@@H](NC(=O)OCc1ccc(NC(=O)[C@H](C)NC(=O)[C@@H](NC(=O)[C@H](CCC(=O)NCC[N+](C)(C)CCCS(=O)(=O)[O-])NC(=O)CCOCCOCCOCCOCCNC(=O)CCN2C(=O)C=CC2=O)C(C)C)cc1)CC3 [LD-37] | 14.069 min | 97.50% | –
10 | CC[C@@]1(O)C(=O)OCc2c1cc1n(c2=O)Cc2c-1nc1cc(F)c(C)c3c1c2[C@@H](NC(=O)OCc1ccc(NC(=O)[C@H](CCC(=O)N(CCCS(=O)(=O)[O-])CC[N+](C)(C)C)NC(=O)[C@@H](NC(=O)CCOCCOCCOCCOCCNC(=O)CCN2C(=O)C=CC2=O)C(C)C)cc1)CC3 [LD-89] | 13.392 min | 98.00% | –
11 | CC[C@H](C)[C@@H]([C@@H](CC(=O)N1CCC[C@H]1[C@H](OC)[C@@H](C)C(=O)N[C@H](C)[C@@H](O)c1ccccc1)OC)N(C)C(=O)[C@@H](NC(=O)[C@H](C(C)C)N(C)C(=O)OCc1ccc(NC(=O)[C@H](CCC(=O)NCC[N+](C)(C)CCCS(=O)(=O)[O-])NC(=O)[C@@H](NC(=O)CCCCCN2C(=O)C=CC2=O)C(C)C)cc1)C(C)C [LD-57] ({Hexanoyl(6-maleimido)}-VE(X1)[PABC][NMeV]V[Dil][Dolaproine]-X2) | 16.066 min | 99.34% | –
12 | CC[C@@]1(O)C(=O)OCc2c1cc1n(c2=O)Cc2c-1nc1cc(F)c(C)c3c1c2[C@@H](NC(=O)OCc1ccc(NC(=O)[C@H](CCC(=O)NCC[N+](C)(C)CCCS(=O)(=O)[O-])NC(=O)[C@@H](NC(=O)CCOCCOCCOCCOCCNC(=O)CCN2C(=O)C=CC2=O)C(C)C)cc1)CC3 [LD-38] | 13.57 min | – | Cathepsin B enzyme digestion kinetics (Cathepsin B enzyme; [3]): 0%; Cathepsin B enzyme digestion kinetics (Cathepsin B enzyme; Time 1 h): 20%; Cathepsin B enzyme digestion kinetics (Cathepsin B enzyme; Time 2 h): 77%; Cathepsin B enzyme digestion kinetics (Cathepsin B enzyme; Time 20 h): 100%
